Data reported in the supplement of paper PMC7877785.
± gives the uncertainty stated by the source.

Experiment: self-splicing fitness, log relative to wild type (ln ratio); higher = more splicing; Tetrahymena group I intron in knt gene, E. coli kanamycin selection, DiMSum; sequences stand for … in CUCUCU…GGAGGGAAAAGUUAUCAGGCAUGCACCUGGUAGCUAGUCUUUAAACCAAUAGAUUGCAUCGGUUUAAAAGGCAAGACCGUCAAAUUGCGGGAAAGGGGUCAACAGCCGUUCAGUACCAAGUCUCAGGGGAAACUUUGAGAUGGCCUUGCAAAGGGUAUGGUAAUAAGCUGACGGACAUGGUCCUAACCACGCAGCCAAGUCCUAAGUCAACAGAUCUUCUGUUGAUAUGGAUGCAGUUCACAGACUAAAUGUCGGUCGGGGAAGAUGUAUUCUUCUCAUAAGAUAUAGUCGGACCUCUCCUUAAUGGGAGCUAGCGGAUGAAGUGAUGCAACACUGGAGCCGCUGGGAACUAAUUUGUAUGCGAAAGUAUAUUGAUUAGUUUUGGAGUACUCGUGGUCG
Procedure, shortened: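 The eight P1ex-region nucleotides of an intron in the knt kanamycin-resistance gene on pET-22b(+) were all randomised and the library put into E. coli BL21(DE3). Six replicate transformations were grown overnight at 37°C or 30°C on LB agar with or without 25 μg/mL kanamycin, together with 100 μg/mL carbenicillin, 50 μM IPTG and 0.2% rhamnose. Colonies were pooled and amplicon-sequenced on an Illumina HiSeq 2500. Fitness from DiMSum is the error-weighted combination of wild-type-normalised replicate fold changes, kanamycin over none.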

Sequence | self-splicing fitness (ln) (30 °C) | self-splicing fitness (ln) (37 °C)
GUUUAGCAAUAUUACGAGGG | -3.76 ± 0.36 | -2.73 ± 0.34
GUUUAGCAAUAUUACGAUAU | -1.18 ± 0.14 | -0.528 ± 0.16
GUUUAGCAAUAUUACGAUCU | -0.663 ± 0.12 | -0.195 ± 0.18
GUUUAGCAAUAUUACGCUCA | 0.0718 ± 0.14 | 0.432 ± 0.2
GUUUAGCAAUAUUACGCUGG | -2.55 ± 0.25 | -0.944 ± 0.26
GUUUAGCAAUAUUACGGAAC | -2.74 ± 0.39 | –
GUUUAGCAAUAUUACGGAUA | -2.77 ± 0.27 | -1.37 ± 0.19
GUUUAGCAAUAUUACGGAUC | -1.18 ± 0.11 | 0.125 ± 0.12
GUUUAGCAAUAUUACGGCCG | -2.4 ± 0.18 | -0.926 ± 0.21
GUUUAGCAAUAUUACGGCGC | 0.141 ± 0.16 | 0.337 ± 0.17
GUUUAGCAAUAUUACGGCGU | -0.507 ± 0.094 | -0.0237 ± 0.12
GUUUAGCAAUAUUACGGUAA | -1.65 ± 0.18 | -1.24 ± 0.14
GUUUAGCAAUAUUACGGUCC | -0.925 ± 0.11 | -0.109 ± 0.12
GUUUAGCAAUAUUACGGUUG | -3.13 ± 0.36 | -1.47 ± 0.28
GUUUAGCAAUAUUACGUAAA | -2.64 ± 0.18 | -0.672 ± 0.18
GUUUAGCAAUAUUACGUACC | -1.45 ± 0.48 | –
GUUUAGCAAUAUUACGUAUA | -2.12 ± 0.16 | -1.41 ± 0.22
GUUUAGCAAUAUUACGUCUA | -1.25 ± 0.14 | -0.618 ± 0.13
GUUUAGCAAUAUUACGUUCC | -0.783 ± 0.26 | –
GUUUAGCAAUAUUACGUUCG | -1.61 ± 0.13 | -0.589 ± 0.14
GUUUAGCAAUAUUACGUUUG | -3.92 ± 0.33 | -1.45 ± 0.21
UAAAAGCAAUAUUACGACCU | -0.4 ± 0.085 | 0.0792 ± 0.098
UAAAAGCAAUAUUACGACUC | -1.22 ± 0.12 | -0.668 ± 0.18
UAAAAGCAAUAUUACGACUU | -0.473 ± 0.098 | -0.07 ± 0.15
UAAAAGCAAUAUUACGAUAA | -0.739 ± 0.077 | -0.348 ± 0.1
UAAAAGCAAUAUUACGCAGC | – | -2.47 ± 0.39

Sequence | self-splicing fitness (ln) (30 °C) | self-splicing fitness (ln) (37 °C)
UAAAAGCAAUAUUACGCCAA | -2.34 ± 0.22 | -1.63 ± 0.18
UAAAAGCAAUAUUACGCCAU | -3.62 ± 0.26 | -2.82 ± 0.3
UAAAAGCAAUAUUACGCGAA | -2.23 ± 0.12 | -0.719 ± 0.12
UAAAAGCAAUAUUACGCGAU | -3.3 ± 0.17 | -2.51 ± 0.2
UAAAAGCAAUAUUACGCGGC | -3.63 ± 0.47 | -2.1 ± 0.31
UAAAAGCAAUAUUACGCGUU | -2.85 ± 0.13 | -1.14 ± 0.13
UAAAAGCAAUAUUACGCUAG | -1.09 ± 0.07 | -0.327 ± 0.091
UAAAAGCAAUAUUACGCUCC | -2.04 ± 0.46 | -0.325 ± 0.48
UAAAAGCAAUAUUACGGAAU | -3.12 ± 0.17 | -2.18 ± 0.2
UAAAAGCAAUAUUACGGAGU | -3.65 ± 0.2 | -2.45 ± 0.19
UAAAAGCAAUAUUACGGAUG | -0.849 ± 0.077 | 0.0272 ± 0.099
UAAAAGCAAUAUUACGGAUU | -2.12 ± 0.14 | -1.56 ± 0.19
UAAAAGCAAUAUUACGGCGG | -0.373 ± 0.078 | -0.0776 ± 0.11
UAAAAGCAAUAUUACGGGCU | -2.79 ± 0.23 | -2 ± 0.29
UAAAAGCAAUAUUACGGUAG | -1.14 ± 0.086 | -0.722 ± 0.097
UAAAAGCAAUAUUACGGUGC | -3.65 ± 0.42 | -2.92 ± 0.35
UAAAAGCAAUAUUACGUCAG | -1.56 ± 0.074 | -0.962 ± 0.097
UAAAAGCAAUAUUACGUCGA | -1.39 ± 0.1 | -0.424 ± 0.12
UAAAAGCAAUAUUACGUCGC | -3.18 ± 0.24 | -2.44 ± 0.36
UAACAGCAAUAUUACGAGCC | -2.65 ± 0.24 | -2.24 ± 0.49
UAACAGCAAUAUUACGAGGC | -3.62 ± 0.2 | -1.97 ± 0.18
UAACAGCAAUAUUACGAUCA | -0.292 ± 0.074 | 0.115 ± 0.07
UAACAGCAAUAUUACGAUCC | – | -2.04 ± 0.42
UAACAGCAAUAUUACGAUGA | -1.01 ± 0.078 | -0.269 ± 0.088
UAACAGCAAUAUUACGCAGU | -3.43 ± 0.19 | -3.5 ± 0.27
UAACAGCAAUAUUACGCGUA | -0.931 ± 0.063 | -0.365 ± 0.067

Sequence | self-splicing fitness (ln) (30 °C) | self-splicing fitness (ln) (37 °C)
UAACAGCAAUAUUACGCGUC | -4.61 ± 0.34 | -2.7 ± 0.18
UAACAGCAAUAUUACGCUGG | -3.29 ± 0.17 | -2.42 ± 0.21
UAACAGCAAUAUUACGGAAG | -2.59 ± 0.12 | -1.93 ± 0.12
UAACAGCAAUAUUACGGAAU | -3.31 ± 0.14 | -2.24 ± 0.15
UAACAGCAAUAUUACGGCCG | -0.568 ± 0.078 | 0.226 ± 0.12
UAACAGCAAUAUUACGGGCU | -4.01 ± 0.21 | -2.3 ± 0.16
UAACAGCAAUAUUACGGUGA | -1.08 ± 0.075 | -0.658 ± 0.082
UAACAGCAAUAUUACGUAGG | -2.08 ± 0.065 | -1.65 ± 0.079
UAACAGCAAUAUUACGUCGC | -3.59 ± 0.38 | -2.73 ± 0.44
UAACAGCAAUAUUACGUCUC | -3.01 ± 0.12 | -3.02 ± 0.2
UAACAGCAAUAUUACGUGAU | -2.4 ± 0.12 | -1.7 ± 0.17
UAAGAGCAAUAUUACGAGUU | -3.16 ± 0.14 | -2.87 ± 0.23
UAAGAGCAAUAUUACGAUUG | -1.72 ± 0.11 | -0.83 ± 0.12
UAAGAGCAAUAUUACGCAGA | -2.62 ± 0.18 | -2.24 ± 0.23
UAAGAGCAAUAUUACGCCAC | -2.07 ± 0.22 | -1.59 ± 0.29
UAAGAGCAAUAUUACGCCUU | -3.87 ± 0.25 | -2.89 ± 0.48
UAAGAGCAAUAUUACGCGCA | -1.81 ± 0.2 | -1.16 ± 0.3
UAAGAGCAAUAUUACGCUGG | -2.31 ± 0.26 | -2.37 ± 0.27
UAAGAGCAAUAUUACGGCCU | -1.36 ± 0.47 | –
UAAGAGCAAUAUUACGGCGA | -2.7 ± 0.32 | -2.09 ± 0.26
UAAGAGCAAUAUUACGGUCA | -1.77 ± 0.18 | -2.52 ± 0.17
UAAGAGCAAUAUUACGGUCG | -2.81 ± 0.16 | -1.85 ± 0.15
UAAGAGCAAUAUUACGUAGU | -3.21 ± 0.19 | -2.32 ± 0.26
UAAGAGCAAUAUUACGUCAC | -2.67 ± 0.3 | -2.04 ± 0.34
UAAGAGCAAUAUUACGUGUC | -3.09 ± 0.21 | -0.977 ± 0.17
UAAGAGCAAUAUUACGUUGG | -2.87 ± 0.28 | –
